Experimental data taken from US20250277036A1 (POLYGON THERAPEUTICS, published 2025).

Experiments:
[1] = target: T1, Biotinylated recombinant human CD8α (Fisher Scientific #17196181) (human, UniProt P01732 22-182, biotinylated (site not stated)); assay: dose-response ELISA on biotinylated human CD8α captured on streptavidin, human IgG1 format
T1 construct: Bought protein; also called hCD8α; recombinant human CD8α protein
Experimental: (§1) […] of streptavidin were coated on Nunc Maxisorp 96-well plates (ThermoFisher #442404) at 100 μL/well and incubated 1 hour at room temperature. Biotinylated human CD8α (Fisher Scientific #17196181) and mouse CD8α (Sino biological #50389-M08H-B) were added at 0.5 μg/mL in 100 μL/well and incubated overnight at 4° C. Human CD4 (Sino biological #10400-H08H) was coated passively at 1 μg/mL in 100 μL/well and incubated overnight at 4° C. Plates were then blocked using 200 μL of PBS containing 4% skimmed milk for 1 hour at room temperature.
(§2) The three antibody clones (in both human IgG1 lambda and rat IgG2b kappa formats) were diluted in milk-PBS and tested at different concentrations (75, 25, 8.3, 2.8, 0.93, 0.31, 0.103, 0.034, 0.011, 0.0038, 0.0013 and 0.00042 μg/mL). 100 μL/well were incubated 1 hour at room temperature.
(§3) TMB ((3,3′,5,5′ tetramethylbenzidine) Thermo Scientific #12617087) was added for a 3-minute incubation. Reaction was stopped with H₂SO₄ and absorbance at 450 nm was read on a microplate reader (Pherastar FS, BMG Labtech).

[2] = target: T2, Recombinant human CD4 (Sino biological #10400-H08H) (human, UniProt P01730 26-390); assay: dose-response ELISA on coated human CD4, human IgG1 format
Experimental: as §1, §2, §3

[3] = target: T3, Biotinylated recombinant mouse CD8α (Sino biological #50389-M08H-B) (mouse, UniProt P01731 28-196, biotinylated (site not stated)); assay: dose-response ELISA, human IgG1 format
Experimental: as §1, §2, §3

[4] = target: T2, Recombinant human CD4 (Sino biological …); assay: dose-response ELISA on coated human CD4, rat IgG2b format
Experimental: as §1, §2, §3

[5] = target: T3, Biotinylated recombinant mouse CD8α …; assay: dose-response ELISA, rat IgG2b format
Experimental: as §1, §2, §3

[6] = target: T1, Biotinylated recombinant human CD8α …; assay: dose-response ELISA on biotinylated human CD8α captured on streptavidin, rat IgG2b format
Experimental: as §1, §2, §3

T3 sequence (P01731 28-196 limits assumed, stated change not applied): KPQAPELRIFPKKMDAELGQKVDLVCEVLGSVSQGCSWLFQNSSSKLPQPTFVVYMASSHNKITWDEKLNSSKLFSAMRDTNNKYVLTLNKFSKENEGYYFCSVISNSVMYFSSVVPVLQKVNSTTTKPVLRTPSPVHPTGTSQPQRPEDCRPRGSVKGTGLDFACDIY
T1 sequence (P01732 22-182 limits assumed): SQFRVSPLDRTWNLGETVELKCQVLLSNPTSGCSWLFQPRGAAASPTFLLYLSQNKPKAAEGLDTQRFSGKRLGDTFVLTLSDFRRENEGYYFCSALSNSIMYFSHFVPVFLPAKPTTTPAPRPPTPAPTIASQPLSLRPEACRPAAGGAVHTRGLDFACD

Binder | EC50 [1] | EC50 [6] | binding result [2] | binding result [3] | binding result [4] | binding result [5]
MP08-R3-C11 in the rat IgG2b kappa format (antibody, V domains shown, Same VH and VL cloned into a rat IgG2b kappa format; also called MP08-R3-C11 rat IgG2b) VH: EVQLVESGGSLVKPGGSLRLSCAASGFTFSNYDMNWVRQAPGKGLEWISDISGSSSYIDYADFVKGRFTISRDNAKNSLYLQMNSLRAEDTAVYYCVRSSYYSGSGMDVWGRGTLVTVSS VL: QSVLTQPASVSGSPGQSITISCAGTSSDVGGGSSVSWYQQHPGKAPKLMIYQDSYRPSGVSNRFSGSKSGNTASLTISGLQAEDEADYYCSSYTYYSTRVFGGGTKLAVL |  | 0.48 nM |  |  | no binding (tested: 75 µg/mL (highest concentration tested)) | no binding (tested: 75 µg/mL (highest concentration tested))
MP09-R3-D03 in the human IgG1 lambda format (antibody, V domains shown, Whole human IgG1 lambda made in ExpiCHO cells; also called hMP09-R3-D03; MP09-R3-D03 human IgG1 clone) VH: EVQLVESGGSLVKPGGSLRLSCAASGFTFSNYYMNWVRQAPGKGLEWISSISGSSRYIYYADFVKGRFTISRDNAKNSLYLQMNSLRAEDTAVYYCVRSSGSYFGNAMDVWGRGTLVTVSS VL: QSVLTQPASVSGSPGQSITISCAGTSSDVGGYYSVSWYQQHPGKAPKLMIYYDSSRPSGVSNRFSGSKSGNTASLTISGLQAEDEADYYCSSDTSYSTRVFGGGTKLAVL | 2 nM |  | no binding (tested: 75 µg/mL (highest concentration tested)) | no binding (tested: 75 µg/mL (highest concentration tested)) |  | 
MP08-R3-C11 in the human IgG1 lambda format (antibody, V domains shown, Whole human IgG1 lambda made in ExpiCHO cells; also called hMP08-R3-C11; MP08-R3-C11 human IgG1 clone) VH: EVQLVESGGSLVKPGGSLRLSCAASGFTFSNYDMNWVRQAPGKGLEWISDISGSSSYIDYADFVKGRFTISRDNAKNSLYLQMNSLRAEDTAVYYCVRSSYYSGSGMDVWGRGTLVTVSS VL: QSVLTQPASVSGSPGQSITISCAGTSSDVGGGSSVSWYQQHPGKAPKLMIYQDSYRPSGVSNRFSGSKSGNTASLTISGLQAEDEADYYCSSYTYYSTRVFGGGTKLAVL | 2.4 nM |  | no binding (tested: 75 µg/mL (highest concentration tested)) | no binding (tested: 75 µg/mL (highest concentration tested)) |  | 

Second part, led by results:

EC50 [1] | EC50 [6] | Binder | binding result [2] | binding result [3] | binding result [4] | binding result [5]
0.28 nM |  | MP08-R3-F08 in the human IgG1 lambda format (antibody, V domains shown, Whole human IgG1 lambda made in ExpiCHO cells; also called hMP08-R3-F08; MP08-R3-F08 human IgG1 clone; copies: 2 + 2) VH: EVQLVESGGSLVKPGGSLRLSCAASGFTFSNNAMNWVRQAPGKGLEWISDISGSSRYIGYADFVKGRFTISRDNAKNSLYLQMNSLRAEDTAVYYCVRSSNYYDYNADAMDVWGRGTLVTVSS VL: QSVLTQPASVSGSPGQSITISCAGTSSDVGGNSYVSWYQQHPGKAPKLMIYSDSSRPSGVSNRFSGSKSGNTASLTISGLQAEDEADYYCSSYTQYSTRVFGGGTKLAVLG | no binding (tested: 75 µg/mL (highest concentration tested)) | no binding (tested: 75 µg/mL (highest concentration tested)) |  | 
 | 0.2 nM | MP08-R3-F08 in the rat IgG2b kappa format (antibody, V domains shown, Same VH and VL cloned into a rat IgG2b kappa format; also called MP08-R3-F08 rat IgG2b) VH: EVQLVESGGSLVKPGGSLRLSCAASGFTFSNNAMNWVRQAPGKGLEWISDISGSSRYIGYADFVKGRFTISRDNAKNSLYLQMNSLRAEDTAVYYCVRSSNYYDYNADAMDVWGRGTLVTVSS VL: QSVLTQPASVSGSPGQSITISCAGTSSDVGGNSYVSWYQQHPGKAPKLMIYSDSSRPSGVSNRFSGSKSGNTASLTISGLQAEDEADYYCSSYTQYSTRVFGGGTKLAVL |  |  | no binding (tested: 75 µg/mL (highest concentration tested)) | no binding (tested: 75 µg/mL (highest concentration tested))
 | 0.99 nM | MP09-R3-D03 in the rat IgG2b kappa format (antibody, V domains shown, Same VH and VL cloned into a rat IgG2b kappa format; also called MP09-R3-D03 rat IgG2b; MP09-R3-D3) VH: EVQLVESGGSLVKPGGSLRLSCAASGFTFSNYYMNWVRQAPGKGLEWISSISGSSRYIYYADFVKGRFTISRDNAKNSLYLQMNSLRAEDTAVYYCVRSSGSYFGNAMDVWGRGTLVTVSS VL: QSVLTQPASVSGSPGQSITISCAGTSSDVGGYYSVSWYQQHPGKAPKLMIYYDSSRPSGVSNRFSGSKSGNTASLTISGLQAEDEADYYCSSDTSYSTRVFGGGTKLAVL |  |  | no binding (tested: 75 µg/mL (highest concentration tested)) | no binding (tested: 75 µg/mL (highest concentration tested))
